# Test results from publication PMC8703375, “Polar Interactions at the Dimer–Dimer Interface of Methionine Adenosyltransferase MAT I Control Tetramerization” (International Journal of Molecular Sciences, 2021).
# Several values for one entry are separate records, joined by “and”; a condition that tells them apart may be missing. Equal values may be shown once.
# B1: MATα1 T63V mutant (enzyme)
# chain: not shown
# notes: methionine adenosyltransferase catalytic subunit MATα1, rat; ORF of pSSRL-T7N with a point mutation; source: E. coli BL21(DE3), IPTG-induced, in soluble fraction
# B2: MATα1 N106A mutant (enzyme)
# chain: not shown
# notes: as for B1
# B3: MATα1 Q81T mutant (enzyme)
# chain: not shown
# notes: as for B1
# B4: MATα1 R85L–T63V double mutant (enzyme)
# chain: not shown
# notes: methionine adenosyltransferase catalytic subunit MATα1, rat; ORF of pSSRL-T7N with two point mutations; source: E. coli BL21(DE3), IPTG-induced, in soluble fraction
# B5: MATα1 R85L mutant (enzyme)
# chain: not shown
# notes: as for B1
# B6: MATα1 R85L–E112L double mutant (enzyme)
# chain: not shown
# notes: as for B4
# B7: MATα1 R85E mutant (enzyme)
# chain: not shown
# notes: as for B1
# B8: MATα1 E112L mutant (enzyme)
# chain: not shown
# notes: as for B1
# B9: wild-type MATα1 (SSRL), rat methionine adenosyltransferase catalytic subunit (enzyme)
# chain: not shown
# notes: methionine adenosyltransferase catalytic subunit MATα1, rat; the rat MATα1 ORF in plasmid pSSRL-T7N; Found as homo-dimers (MAT III) and homo-tetramers (MAT I) in an equilibrium that depends on protein concentration; also called MAT I (homo-tetramer); MAT III (homo-dimer); source: E. coli BL21(DE3), IPTG-induced, in soluble fraction
# Target: the molecule itself
# Test: hydrophobic chromatography on phenyl Sepharose; soluble fractions of E. coli at 0.5 mg/mL (2 mL) on phenyl Sepharose in 50 mM Tris/HCl pH 8, 10 mM MgSO4, 1 mM EDTA; tetramers in the flowthrough, dimers eluted with 50% (v/v) DMSO; dot-blot with anti-MATα1 antiserum, dimer/tetramer ratio by densitometry
row,Protein,stoichiometry N
1,B1,2
2,B2,4
3,B3,4
4,B4,2
5,B5,2 and 4
6,B6,2
7,B7,2
8,B8,4

# Target: the molecule itself
# Test: SEC; analytical gel filtration (AGFC): soluble fractions of E. coli at 0.5 mg/mL (100 µL) on Superose 12 10/30 HR in 50 mM Tris/HCl pH 8, 10 mM MgSO4, 1 mM EDTA, 150 mM KCl, 0.3 mL/min; fractions read by dot-blot with anti-MATα1 antiserum; homo-dimers and homo-tetramers separated by size
row,Protein,stoichiometry N
1,B9,2 and 4
